Measured values: patent US20160058827A1

Target: MUC1 C-terminal subunit (MUC1-C) (human) (UniProt P15941)
Experiment: cell-based or functional assay

Chain of MUC1 C-terminal subunit (MUC1-C) (human) (P15941 1097-1255): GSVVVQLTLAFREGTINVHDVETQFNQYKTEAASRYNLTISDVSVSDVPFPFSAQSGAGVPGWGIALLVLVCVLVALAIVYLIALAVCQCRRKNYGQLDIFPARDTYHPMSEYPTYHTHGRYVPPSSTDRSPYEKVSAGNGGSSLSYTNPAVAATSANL

Q: Which half-maximal inhibitory concentration for GO-203 (BT-474/CshRNA cell growth) does the source give for GO-203 (peptide) here?
A: 3.9 µM
